Molecular target: the molecule itself
Test: cryo-EM structure

B1: rBAT (SLC3A1), human, N-terminal 10x His tag (natural protein, UniProt Q07837-1 1-685, looked up)
chain: MAEDKSKRDSIEMSMKGCQTNNGFVHNEDILEQTPDPGSSTDNLKHSTRGILGSQEPDFKGVQPYAGMPKEVLFQFSGQARYRIPREILFWLTVASVLVLIAATIAIIALSPKCLDWWQEGPMYQIYPRSFKDSNKDGNGDLKGIQDKLDYITALNIKTVWITSFYKSSLKDFRYGVEDFREVDPIFGTMEDFENLVAAIHDKGLKLIIDFIPNHTSDKHIWFQLSRTRTGKYTDYYIWHDCTHENGKTIPPNNWLSVYGNSSWHFDEVRNQCYFHQFMKEQPDLNFRNPDVQEEIKEILRFWLTKGVDGFSLDAVKFLLEAKHLRDEIQVNKTQIPDTVTQYSELYHDFTTTQVGMHDIVRSFRQTMDQYSTEPGRYRFMGTEAYAESIDRTVMYYGLPFIQEADFPFNNYLSMLDTVSGNSVYEVITSWMENMPEGKWPNWMIGGPDSSRLTSRLGNQYVNVMNMLLFTLPGTPITYYGEEIGMGNIVAANLNESYDINTLRSKSPMQWDNSSNAGFSEASNTWLPTNSDYHTVNVDVQKTQPRSALKLYQDLSLLHANELLLNRGWFCHLRNDSHYVVYTRELDGIDRIFIVVLNFGESTLLNLHNMISGLPAKMRIRLSTNSADKGSKVDTSGIFLDKGEGLIFEHNTKNLLHRQTAFRDRCFVSNRACYSSVLNILYTSC
modifications: five glycosylation sites in the extracellular domain (residues 111 to 685)
stoichiometry N: 2
